Numbering of substitutions follows the chain as printed. Names may count otherwise.
B1: Fab VH5-51_IGHD5-18*01>3_IGHJ4*01 G100K/G104T G24T/S28R/G35V (H:KT TRV) & V3-4_IGLJ1*01 V91L/S96P S57G (Fab, V domains shown)
VH: EVQLVQSGAEVKKPGESLKISCKTSGYRFTSYWIVWVRQMPGKGLEWMGIIYPGDSDTRYSPSFQGQVTISADKSISTAYLQWSSLKASDTAMYYCARRKYSYTYDYFDYWGQGTLVTVSS
VL: QTVVTQEPSFSVSPGGTVTLTCGLSSGSVSTSYYPSWYQQTPGQAPRTLIYSTNTRGSGVPDRFSGSILGNKAALTITGAQADDESDYYCLLYMGPGISYVFGTGTKVTVL
notes: Fab made in E. coli: VH in plasmid A (CH1, His6 and Flag tags), VL in plasmid E (lambda CL); also called H:KT TRV & L:LP S57G
B2: Fab VH5-51_IGHD5-18*01>3_IGHJ4*01 G100K/G104T G24T/S28R/G35V (H:KT TRV) & V3-4_IGLJ1*01 V91L/S96P S57Q (Fab, V domains shown)
VH: B1 VH
VL: B1 VL with G57Q
notes: Fab made in E. coli: VH in plasmid A (CH1, His6 and Flag tags), VL in plasmid E (lambda CL); also called H:KT TRV & L:LP S57Q
B3: Fab VH5-51_IGHD5-18*01>3_IGHJ4*01 G100K/G104T G24T/S28R/G35V (H:KT TRV) & V3-4_IGLJ1*01 V91L/S96P S57Y (Fab, V domains shown)
VH: B1 VH
VL: B1 VL with G57Y
notes: Fab made in E. coli: VH in plasmid A (CH1, His6 and Flag tags), VL in plasmid E (lambda CL); also called H:KT TRV & L:LP S57Y
B4: Fab VH1-46_IGHD6-6*01_IGHJ1*01 S102A/S103P/S104F (APF) & L6_IGKJ1*01 S30L (Fab, V domains shown)
VH: QVQLVQSGAEVKKPGASVKVSCKASGYTFTSYYMHWVRQAPGQGLEWMGIINPSGGSTSYAQKFQGRVTMTRDTSTSTVYMELSSLRSEDTAVYYCAREEYAPFSAEYFQHWGQGTLVTVSS
VL: EIVLTQSPATLSLSPGERATLSCRASQSVLSYLAWYQQKPGQAPRLLIYDASNRATGIPARFSGSGSGTDFTLTISSLEPEDFAVYYCQQRSNWPPWTFGQGTKVEIKR
notes: Tested as a Fab; Expressed in E. coli from Plasmid A (CH1 with His6 and Flag tags) and Plasmid C (kappa CL); also called APF & S30L
B5: Fab VH1-46_IGHD6-6*01_IGHJ1*01 S102A/S103P/S104F (APF) & L6_IGKJ1*01 Y32S (Fab, V domains shown)
VH: B4 VH
VL: B4 VL with L30S, Y32S
notes: Tested as a Fab; Expressed in E. coli from Plasmid A (CH1 with His6 and Flag tags) and Plasmid C (kappa CL); also called APF & Y32S
B6: Fab VH1-46_IGHD6-6*01_IGHJ1*01 S102A/S103P/S104F (APF) & L6_IGKJ1*01 S30R (Fab, V domains shown)
VH: B4 VH
VL: B4 VL with L30R
notes: Tested as a Fab; Expressed in E. coli from Plasmid A (CH1 with His6 and Flag tags) and Plasmid C (kappa CL); also called APF & S30R
B7: Fab VH1-46_IGHD6-6*01_IGHJ1*01 S102A/S103P/S104F (APF) & L6_IGKJ1*01 S30T (Fab, V domains shown)
VH: B4 VH
VL: B4 VL with L30T
notes: Tested as a Fab; Expressed in E. coli from Plasmid A (CH1 with His6 and Flag tags) and Plasmid C (kappa CL); also called APF & S30T
B8: Fab VH1-46_IGHD6-6*01_IGHJ1*01 S102A/S103P/S104F/H111F (APFF) & L6_IGKJ1*01 S28F (Fab, V domains shown)
VH: B4 VH with H111F
VL: B4 VL with S28F, L30S
notes: Tested as a Fab; Expressed in E. coli from Plasmid A (CH1 with His6 and Flag tags) and Plasmid C (kappa CL); also called APFF & S28F
B9: Fab VH1-46_IGHD6-6*01_IGHJ1*01 S102A/S103P/S104F/H111F (APFF) & L6_IGKJ1*01 S28K (Fab, V domains shown)
VH: B4 VH with H111F
VL: B4 VL with S28K, L30S
notes: Tested as a Fab; Expressed in E. coli from Plasmid A (CH1 with His6 and Flag tags) and Plasmid C (kappa CL); also called APFF & S28K
B10: Fab VH1-46_IGHD6-6*01_IGHJ1*01 S102A/S103P/S104F/H111F (APFF) & L6_IGKJ1*01 S28V (Fab, V domains shown)
VH: B4 VH with H111F
VL: B4 VL with S28V, L30S
notes: Tested as a Fab; Expressed in E. coli from Plasmid A (CH1 with His6 and Flag tags) and Plasmid C (kappa CL); also called APFF & S28V
B11: Fab VH1-46_IGHD6-6*01_IGHJ1*01 S102A/S103P/S104F (APF) & L6_IGKJ1*01 S30W (Fab, V domains shown)
VH: B4 VH
VL: B4 VL with L30W
notes: Tested as a Fab; Expressed in E. coli from Plasmid A (CH1 with His6 and Flag tags) and Plasmid C (kappa CL); also called APF & S30W
B12: Fab VH1-46_IGHD6-6*01_IGHJ1*01 S102A/S103P/S104F/H111F (APFF) & L6_IGKJ1*01 S28G (Fab, V domains shown)
VH: B4 VH with H111F
VL: B4 VL with S28G, L30S
notes: Tested as a Fab; Expressed in E. coli from Plasmid A (CH1 with His6 and Flag tags) and Plasmid C (kappa CL); also called APFF & S28G
B13: Fab VH1-46_IGHD6-6*01_IGHJ1*01 S102A/S103P/S104F/H111F (APFF) & L6_IGKJ1*01 S30L (Fab, V domains shown)
VH: B4 VH with H111F
VL: B4 VL
notes: Fab expressed in E. coli: VH joined to CH1 (Plasmid A, His6 and Flag tags), VL joined to kappa CL (Plasmid C); also called APFF S30L
B14: Fab VH1-46_IGHD6-6*01_IGHJ1*01 S102A/S103P/S104F/H111F (APFF) & L6_IGKJ1*01 S30Q (Fab, V domains shown)
VH: B4 VH with H111F
VL: B4 VL with L30Q
notes: Fab expressed in E. coli: VH joined to CH1 (Plasmid A, His6 and Flag tags), VL joined to kappa CL (Plasmid C); also called APFF S30Q
B15: Fab VH1-46_IGHD6-6*01_IGHJ1*01 S102A/S103P/S104F/H111F (APFF) & L6_IGKJ1*01 S30R (Fab, V domains shown)
VH: B4 VH with H111F
VL: B4 VL with L30R
notes: Fab expressed in E. coli: VH joined to CH1 (Plasmid A, His6 and Flag tags), VL joined to kappa CL (Plasmid C); also called APFF S30R
B16: Fab VH1-46_IGHD6-6*01_IGHJ1*01 S102A/S103P/S104F/H111F (APFF) & L6_IGKJ1*01 S30T (Fab, V domains shown)
VH: B4 VH with H111F
VL: B4 VL with L30T
notes: Fab expressed in E. coli: VH joined to CH1 (Plasmid A, His6 and Flag tags), VL joined to kappa CL (Plasmid C); also called APFF S30T
B17: Fab VH1-46_IGHD6-6*01_IGHJ1*01 S102A/S103P/S104F/H111F (APFF) & L6_IGKJ1*01 S30P (Fab, V domains shown)
VH: B4 VH with H111F
VL: B4 VL with L30P
notes: Fab expressed in E. coli: VH joined to CH1 (Plasmid A, His6 and Flag tags), VL joined to kappa CL (Plasmid C); also called APFF S30P
B18: Fab VH1-46_IGHD6-6*01_IGHJ1*01 S102A/S103P/S104F/H111F (APFF) & L6_IGKJ1*01 S30W (Fab, V domains shown)
VH: B4 VH with H111F
VL: B4 VL with L30W
notes: Fab expressed in E. coli: VH joined to CH1 (Plasmid A, His6 and Flag tags), VL joined to kappa CL (Plasmid C); also called APFF S30W

These binders were tested against T1, Recombinant Human DLL4 (delta-like protein 4) (human, UniProt Q9NR61 27-524) (assay: ELISA, DLL4 coated on plate, 100 nM Fab).
T1 construct: Bought recombinant human DLL4 (R&D Systems Cat#1506-D4/CF) coated on the ELISA plate; also called rHuman DLL4; Delta-like ligand 4

| Binder | ELISA Signal-blank (100 nM Fab) |
| --- | --- |
| B1 | 0.23 |
| B2 | 0.21 |
| B3 | 0.28 |

These binders were tested against T2, Recombinant Human DLL4 (R&D Systems Cat#1506-D4/CF) (human, UniProt Q9NR61 27-524) (assay: ECL (MSD) multispot binding assay, DLL4 spotted on plate, Fab in solution).
T2 construct: Bought recombinant protein; also called delta-like protein 4; rHuman DLL4

| Binder | ECL signal | Signal/Blank |
| --- | --- | --- |
| B4 | 1630 | 6.9 |
| B5 | 1030 | 4.9 |
| B6 | 745 | 7.8 |
| B7 | 1020 | 4.9 |
| B8 | 134000 | 537 |
| B9 | 124000 | 314 |
| B10 | 83100 | 351 |
| B11 | 791 | 4.3 |
| B12 | 183000 | 533 |

What follows are binders tested against T3, Recombinant Human DLL4 (R&D Systems Cat#1506-D4/CF) (human, UniProt Q9NR61 27-524) (assay: ECL multispot (MSD) binding assay, DLL4 signal over blank spot; Fab concentration not given).
T3 construct: Bought recombinant protein; also called delta-like protein 4; rHuman DLL4

| Binder | Signal/Blank |
| --- | --- |
| B13 | 524 |
| B14 | 1020 |
| B15 | 350 |
| B16 | 300 |
| B17 | 4.4 |
| B18 | 660 |

What follows are binders tested against T3, Recombinant Human DLL4 (R&D Systems …) (assay: ECL multispot (MSD) binding assay, DLL4 spotted on plate, purified Fab in solution; Fab concentration not given).

| Binder | ECL signal |
| --- | --- |
| B13 | 199000 |
| B14 | 203000 |
| B15 | 146000 |
| B16 | 122000 |
| B17 | 1140 |
| B18 | 191000 |

Reference: patent US20120316071A1 (published 2012)
